# According to the DeepSol protein solubility set:
# Assay: soluble on expression in E. coli; label from the status in PepcDB or PDB records
row,Sequence,soluble on expression in E. coli
1,MQCSRALALRLILIAPNGTSVKTLLRPRLDESWEQFVRRRLATPIRRQRIACDRTQKEVADIVGVSHHSIQRWELAYVRSRPIAHIVWAQAHDFLLGLELIHALGRTPRRVSRAHHVHSGR,not soluble
2,MSNLYTELKNEWSKHAPNLTHCSRLLDGFKLELVRSNFGTIQTASSSKQKDQLIKSREMLEIAVEHSITIKDYAAFERYMAQLNTYYYDYDKYLESSKHMYKFMGLNLLYMLATNRLADFHIELERLPTALLLHDSFIQPVLALENYYMEGRYNKILQAKKSMPSEIYSNFMDILVNTAREEIASCMEKSYLKMAPKLAAQRLGLRPGSKELFELATKRQWCLDEEGNYDYAGLHTRPMEKVPAKDIATHNLTYAQELEKIVLEHHHHHH,not soluble
3,AHHHHHHGSETEEIEAPKKKVPLAMVTIRPAKLFDIPYIMRIEQMSFKEAYPRGLFLTFLEANPDTFLVAEYNGKIVGYVMGYLRPDMEGHIMSIAVHPDYRGNGIGKALMIAVIKKLFEKGARWIGLEVRVSNYRAINLYKKLGFKIVKRIISYYSDGEDAYYMILRPEDFERVILS,not soluble
4,MRARIICGFRLVSETGSGSSSSDLTSASGASQWGNSSRSHWLKRWCASCSSAPEISNWQLSPASVSVPISARALLALPCGQCAGYATQFVMKKYYTAFQRGLPDAHVRRLEHHHHHH,not soluble
5,MGSDKIHHHHHHMSVQISVVAATLNEIDNIEQFIDGVEGVLKGMEFEIIVVDDNSSDGTKEYLARRMNEDTHVVVIENPYRFGMLRSLKLGIEKAGGEIVLVMDADMQHPPSAIPKLISRIVDGCDIVVGSRYVDGGSAGDRDAFRAALSRGAEFLAHALVPSSRMTSDPMSGFFAFRRDLRHDFAYRQTFATADYGAKILLIILAENRHAKVCDVGYVFQSRMRGKSKIVSGTSFLKRYLAELFEVMKLERRYRHMQ,not soluble
6,MAHHHHHHMVFDVNGDFVENEQQFIEAARKSINLTIKLQNTSGMSELIARVLEDDDRRASGAISTSALDFDELLRTTPRFNFLSGDHPIFRRYNKRLAQQRQAAALIAQRTAEAELQRQAEIKERLRKALEEEAAVQKKKEQEKAELQRMRAAQEPARFVPEEPFLKIIKDESSFGQVERELKKPETAAEPKVESKAEGAASEAITNTATGTSTTLSNDVAATISAEELLVLVGVPTETMETTTPALEDLAEAIALPSSENTATYVALPAEEYTLCSGERVVSVIKKRSGPIPAPPPGTPPVINKAAASRLSEPVKRVKPVEKMVRNCTPSNEQPYKSRHRSRSPRSRRRSERDHSSKECSRRHRRDEPSSHRHHKNSRDSKHRR,not soluble
7,MGSDKIHHHHHHMSNTVRAISPDITLFNKTLTFQEISQNTREAVIYIHGGAWNDPENTPNDFNQLANTIKSMDTESTVCQYSIEYRLSPEITNPRNLYDAVSNITRLVKEKGLTNINMVGHSVGATFIWQILAALKDPQEKMSEAQLQMLGLLQIVKRVFLLDGIYSLKELLIEYPEYDCFTRLAFPDGIQMYEEEPSRVMPYVKKALSRFSIDMHLVHSYSDELLTLRQTNCLISCLQDYQLSFKLYLDDLGLHNDVYKNGKVAKYIFDNIC,soluble
8,MGSDKIHHHHHHMKYTELLQLQTFFSRFKKIDFIKRINDNILELSFDRERFIFDLTRAMSAIYTAKFNAKNYNAPFDFMLKKYFSNAFIKEVKVLEGNRILCFSVKANKAYKSYESKIYFEFTGKNTNVILTDEKDLIIEALRHIDKSYRVVKPNVILESLKPYKMDENFEEIKDFADYFSRKFTSIYESKIKQIKNLKLAQVDKKIQNLQELFSSLDEENSLLLKALEYRKRADVLFANLSVLKDYEREFKLDDFEGKELEFKLEFNPKQSANLYYKNAKKLEQKAKNLNIQRQNLKEKLDFTLSLKELLLQAKSEIELEILLPKKNSKKNQDHKQEDLVANFYFNEFKICVGKNEKGNEFLLKNAKKDDLWLHVRDIPSAHTLIVSNKQKISLDVIEFAARLCVSFSKLKKGSYWVDYTLKNFVKVQQKAFVNYTNFKSINITKD,not soluble
9,ADFDYVVVGAGNAGNVVAARLTEDPDVSVLVLEAGVSDENVLGAEAPLLAPGLVPNSIFDWNYTTTAQAGYNGRSIAYPRGRMLGGSSSVHYMVMMRGSTEDFDRYAAVTGDEGWNWDNIQQFVRKNEMVVPPADNHNTSGEFIPAVHGTNGSVSISLPGFPTPLDDRVLATTQEQSEEFFFNPDMGTGHPLGISWSIASVGNGQRSSSSTAYLRPAQSRPNLSVLINAQVTKLVNSGTTNGLPAFRCVEYAEQEGAPTTTVCAKKEVVLSAGSVGTPILLQLSGIGDENDLSSVGIDTIVNNPSVGRNLSDHLLLPAAFFVNSNQTFDNIFRDSSEFNVDLDQWTNTRTGPLTALIANHLAWLRLPSNSSIFQTFPDPAAGPNSAHWETIFSNQWFHPAIPRPDTGSFMSVTNALISPVARGDIKLATSNPFDKPLINPQYLSTEFDIFTMIQAVKSNLRFLSGQAWADFVIRPFDPRLRDPTDDAAIESYIRDNANTIFHPVGTASMSPRGASWGVVDPDLKVKGVDGLRIVDGSILPFAPNAHTQGPIYLVGKQGADLIKADQ,soluble
10,MAFQLEMVTRETVVIRLFGELDHHAVEQIRAKISTAIFQGAVTTIIWNFERLSFMDSSGVGLVLGRMRELEAVAGRTILLNPSPTVRKVFQFSGLGPWMMDATEEEAIDRVRGIVNG,soluble
11,MGSDKIHHHHHHMTAATQAKHTPDDLSVAPRDIRFDLTSAQKGHWLGGDPVGTAVFNALSLTFPDGERMFMDAVKAYRDRLSGKLLEDAKGFIAQEAIHSREHHHLNSLIDRERYPVAEIEETIRGRVKMARERGPMAMLISTIALEHFTAMMAEMHARHRNLFDTTDPEIEKLWRWHAVEETEHKAVAYDVFLEVTKDWSPLKRYMIRCRAMVFVTIMFTRNISRYAARLLEADGYTPKAALKAVKRFVWGDPGIFRRGWKTYFAWYRPGFHPWDQDDRPLVADWMAEFNAAAVRV,not soluble
12,MKTYRIRKPKIVVVGGGTGLPVILKSLRNQSVDITAVVTVADDGGSSGELRSSINNMTPPGDLRNVLVALSDMPQLYEDIFQYRFDKSDSHFANHAIGNLIIAAVSEMRGSTYEAIQLLSKMMHVDGRIYPSSERPLTLHAVFKDGSVAVGESKIALDRKTIDHVFVTNTHGEEQPRAARKVVKAIEEADMVVLGPGSLFTSILPNLVITEIGEAIKQTAAEVVYICNIMTQKGETEHFTDADHVRVLNEHLQAQFVDTVLVNTEKVPENYMDPEIYDEYLVQVKHDFQGLREEGCRVISTDFLELRDGGVFHDGEKVVEELFRIVFGTKYLEHHHHHH,soluble
13,MSTSSNKSDAIKQTRAFSILLMGVDTGSSERASKWEGNSDSMILVTVNPKTKKTTMTSLERDTLTTLSGPKNNEMNGVEAKLNAAYAAGGAQMAIMTVQDLLNITIDNYVQINMQGLIDLVNAVGGITVTNEFDFPISIAENEPEYQATVAPGTHKINGEQALVYARMRYDDPEGDYGRQKRQREVIQKVLKKILALDSISSYRKILSAVSSNMQTNIEISSRTIPSLLGYRDALRTIKTYQLKGEDATLSDGGSYQIVTSNHLLEIQNRIRTELGLHKVNQLKTNATVYENLYGSTKSQTVNNNYDSSGQAPSYSDSHSSYANYSSGVDTGQSASTDQDSTASSHRPATPSSSSDALAADESSSSGSGSLVPPANINPQTLEHHHHHH,soluble
14,MGSDKIHHHHHHMAEKPISLSQAPAGYSDWLSELKTKIHSAQQRATLAVNQELVLLYWQIGQEILTRQAELGWGAKVVERLAHDLRTAFPDMKGFSPRNLKYMRAFAEAWPDLEFVQALLAQLPWYHQLALLDKLDNTDSRTWYAQKALENHWSRNVLVMHIESGLHQRQGAAITNFAATLPKPQSDLARESIKDPYRFDFLGLTEAAQEREIEHALVQHVTQFLLELGAGFAFVGRQVLMQVGDEEFFIDLLFYHLKLRCYVVIELKTGKFKPEHLGQLSFYMTAIDKQVKTEPDNATIGLLLCKSKDKVVAEYALGDKSQAMGIAEYKLQQALPEVLESNLPSIEQIERELQGEA,not soluble
15,MAHHHHHHSLKDKPLKLTVEKLVYGGYGFSRLNGKAVFVRFASPKELVEAKVVKEKKDYTEAVVTKVLISSPARRKAPCPYYGECGGCQIQHLNYEEQLRSKKDILLESLERIGKIKEVPYEGEIPSKKEFNYRVRVQFKIQENRVGFYRWDVKEVVDVEECLLAHERINELIPHIREVLKVIKDLQEVHVNYSPTRDEATLKFVTITHTDEKLLQNILENVLPEWVVGIGDYGKVGNSLVKRYKVGREHIFMDVGKWQYRVSNDSFFQVNYTLWEDFLKEVLDFSESYKKGLDLHCGVGFFTIPLSEQGNFIEGADANPSAIKDAEYNAKINNRDNVIFEEATAFKHLKRRIGEVINLVVVDPPRSGLLREERDLLLKNKPDKIVYISCNPTTFARDLKILTKGGYELKRLKLIDNFPQTYHIESIALLEVKDEG,soluble
16,MPWRTALKVALAAGEAVAKALTRAVRDEIKQTQQAAARHAASTGQSASETRENANSNAKLGISLEESLQILNVKTPLNREEVEKHYEHLFNINDKSKGGTLYLQSKVFRAKERIDEEFGRIELKEEKKKEENAKTE,not soluble
17,SESWRSFFKEALQGVGDMGRAYWDIMISNHQNSNRYLYARGNYDAAQRGPGGVWAAKLISRSRVYLQGLIDYYLFGNSSTVLEDSKSNEKAEEWGRSGKDPDRFRPDGLPKKY,soluble
18,MSIIIENSGLFSSFQDFGRKGYEHEGVIPSGALDELAHEIANRLVANDKNEATLEMTQKMATIRFTEPALIALTGGNFKAETEHMKIYPNKLYLINEGETLKFNETSRTSRVYLAVGGGFKLEKWLHSASTDFNVEIGGFEGRKLKKGDEIELKHHYSQRHLKLFENLSDKRTTDWGIDGYALSFNYVSDVFHVIKNKGTEDFKKEATRRFTTAEYSVSSKTNRVGMVLDGPQIKAYYDDMPAHQSVKRGTIQVKRDGTPIVLLNDHYTLGSYPQIGTIASYHLTKLAQKPQGSKLKFQFIDIETAEKNLIKYSNWLNQLFHGIEHRMQLEMLKMAGDPLEHHHHHH,not soluble
19,MGSDKIHHHHHHMTMPYVKNTKEILEKASKERYAIGAFNFNNMEFLQAILEAAEEEKAPVIVATSEGAIKYIGKGDIETGAKLAVEMVRTYAEKLSVPVALHLDHGRDFKVIMAAIKAGYSSVMIDASHLPFEENLRETKRIVEIAHAVGISVEAELGKLKGIEDNVVEKESVLVDPEEAKVFVKETEVDFLAPAIGTSHGAFKFKGEAQLDFERLKKVKEYTQIPLVLHGASMVPQDIVKLANEYGAELSGAKGVPEDMLKKAIELGINKINTDTDLRITFVAYLRKVLSEDKSQIDPRKIFKPVFEQVKEIVKERIRIFGSSGKA,not soluble
20,MGSDKIHHHHHHMKEVKIGKDKISVALCTYNGEKFIREQLRSIVGQTILPWQIVVCDDQSTDRTMDIVREFADDYPSIRWMIIRNEVRLGVRRNFEKAIALAEGDYIAPSDQDDIWERNKLEILLHIMREKKVSLVHSNIRYVDVKGREMTERLDFPCSVPLATYLYGLNNVMGCTCLFCASLKDILFPFPIHYYYHDQWLAIMAYHNGGIYLCDHKLVRYRQHADNVVSAICGGGKREGEELGLSYFVGKAEDIYLLLHRRKQIKYSQKDWWRLAWLYVSNRLGLAWLKFKLL,not soluble
21,MSKLYFRYGAMNSGKSTHLMQVAHNYEERGMEVIIIKPSTDKKGGDKVVSRLGVERVVDILIDNDENIIETIEDRLEKGRKIDCIIVDEVQFLKAHHIDELFEIAVGKGIPVICYGLRTDFQMNGFEGSERLLLLAHSIEEMKTICRCGRKAILNGRMINGKFTFEGEQVAIDLVDNVEYQSLCGQCYFKYKYGKDSDNLEHHHHHH,soluble
